Source: article PMC12620021 (Nucleic Acids Research, 2025)

Key:
[1] = target: T1, RelE1 toxin of Mycobacterium tuberculosis (crystallization construct, expressed as His-SUMO–RelE1) (Mycobacterium tuberculosis, UniProt O50461 1-97); experiment: crystal structure; conditions: both partners purified
T1 sequence: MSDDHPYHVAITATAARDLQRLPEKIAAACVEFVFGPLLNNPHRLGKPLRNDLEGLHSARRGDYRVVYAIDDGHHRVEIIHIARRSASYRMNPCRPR

crystal structure = target: the molecule itself; experiment: crystal structure

B1: RelB1 antitoxin of Mycobacterium tuberculosis (crystallization construct) (natural protein)
chain: MAVVPLGEVRNRLSEYVAEVELTHERITITRHGHPAAVLISADDLASIEETLEVLRTPGASEAIREGLADVAAGRFVSNDEIRNRYTAR
binding result [1]: binds | binding result (crystal structure): binds
